US20070065444A1 (Amgen, published 2007)
Read-outs that look alike come from different tables or passages of the source.

T1: Cynomolgus monkey ALK-1 (full-length, cell surface) (cynomolgus monkey, UniProt P37023 22-503 (human entry))
T1 construct: also called Cyno ALK-1
T1 chain: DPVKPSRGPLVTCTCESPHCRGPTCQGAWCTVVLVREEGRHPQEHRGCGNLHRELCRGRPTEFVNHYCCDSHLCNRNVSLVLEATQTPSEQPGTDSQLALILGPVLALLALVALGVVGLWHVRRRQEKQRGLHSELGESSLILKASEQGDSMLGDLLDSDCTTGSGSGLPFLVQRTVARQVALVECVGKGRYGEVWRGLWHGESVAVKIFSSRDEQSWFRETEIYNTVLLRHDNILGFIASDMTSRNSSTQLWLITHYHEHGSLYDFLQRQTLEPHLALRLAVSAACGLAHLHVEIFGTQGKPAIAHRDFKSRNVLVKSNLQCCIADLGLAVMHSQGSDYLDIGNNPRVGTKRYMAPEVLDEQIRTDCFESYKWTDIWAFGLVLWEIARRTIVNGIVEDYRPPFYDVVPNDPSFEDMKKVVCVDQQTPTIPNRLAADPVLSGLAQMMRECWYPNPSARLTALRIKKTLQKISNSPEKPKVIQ

T2: cynomologus ALK-1/Fc fusion protein (cynomolgus monkey, UniProt Q5RAN0 22-118 (Pongo abelii entry))
T2 construct: also called cALK-1/Fc; not shown: Fc part and any linker not described
T2 chain: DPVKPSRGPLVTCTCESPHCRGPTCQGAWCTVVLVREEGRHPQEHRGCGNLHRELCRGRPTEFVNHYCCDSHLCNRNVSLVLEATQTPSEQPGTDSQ

B1: 1.11.1 (antibody, human IgG2, V domains shown)
VH: QVQLVESGGGVVQPGRSLRLSCAASGFTFSSHGMYWVRQAPGKGLEWVAAIWYDGSNKYYADSVKGRFTISRDNSKNTLYLQMNSLRAEDTAVYYCARDQEQWPDVFDIWGQGTMVTVSS
VL: DIQMTQSPSSLSASVGDRVTITCRASQGIRNYLAWFQQKPGKAPKSLIYGASSLQSGVPSKFSGSGSGTDFTLTISSLQPEDFATYYCQQYNSYPLTFGGGTKVEIK
notes: Human IgG2 kappa antibody from a hybridoma
B2: 1.12.1(rWT) (antibody, human IgG2, kappa)
heavy: QVQLQESGPGLVKPSQTLSLTCTVSGGSMSSGEYYWNWIRQHPGKGLEWIGYIYYSGSTYYNPSLKSRVTISVDTSKNQFSLKLSSVTAADTAVYYCARESVAGFDYWGQGTLVTVSSASTKGPSVFPLAPCSRSTSESTAALGCLVKDYFPEPVTVSWNSGALTSGVHTFPAVLQSSGLYSLSSVVTVPSSNFGTQTYTCNVDHKPSNTKVDKTVERKCCVECPPCPAPPVAGPSVFLFPPKPKDTLMISRTPEVTCVVVDVSHEDPEVQFNWYVDGVEVHNAKTKPREEQFNSTFRVVSVLTVVHQDWLNGKEYKCKVSNKGLPAPIEKTISKTKGQPREPQVYTLPPSREEMTKNQVSLTCLVKGFYPSDIAVEWESNGQPENNYKTTPPMLDSDGSFFLYSKLTVDKSRWQQGNVFSCSVMHEALHNHYTQKSLSLSPGK
light: not shown
notes: mAb 1.12.1 expressed as a recombinant mAb; also called recombinant wild-type mAb 1.12.1
B3: 1.12.1 (antibody, human IgG2, kappa)
heavy: QVQLQESGPGLVKPSQTLSLTCTVSGGSMSSGEYYWNWIRQHPGKGLEWIGYIYYSGSTYYNPSLKSRVTISVDTSKNQFSLKLSSVTAADTAVYYCARESVAGFDYWGQGTLVTVSSASTKGPSVFPLAPCSRSTSESTAALGCLVKDYFPEPVTVSWNSGALTSGVHTFPAVLQSSGLYSLSSVVTVPSSNFGTQTYTCNVDHKPSNTKVDKTVERKCCVECPPCPAPPVAGPSVFLFPPKPKDTLMISRTPEVTCVVVDVSHEDPEVQFNWYVDGVEVHNAKTKPREEQFNSTFRVVSVLTVVHQDWLNGKEYKCKVSNKGLPAPIEKTISKTKGQPREPQVYTLPPSREEMTKNQVSLTCLVKGFYPSDIAVEWESNGQPENNYKTTPPMLDSDGSFFLYSKLTVDKSRWQQGNVFSCSVMHEALHNHYTQKSLSLSPGK
light: not shown
notes: Hybridoma-derived human IgG2 kappa antibody; also called mAb 1.12.1 isolated from the hybridoma; hybridoma LN 15916, ATCC PTA-6808
B4: 1.12.1(D19A) (antibody, human IgG2, kappa)
heavy: QVQLQESGPGLVKPSQTLSLTCTVSGGSMSSGEYYWNWIRQHPGKGLEWIGYIYYSGSTYYNPSLKSRVTISVDTSKNQFSLKLSSVTAADTAVYYCARESVAGFDYWGQGTLVTVSSASTKGPSVFPLAPCSRSTSESTAALGCLVKDYFPEPVTVSWNSGALTSGVHTFPAVLQSSGLYSLSSVVTVPSSNFGTQTYTCNVDHKPSNTKVDKTVERKCCVECPPCPAPPVAGPSVFLFPPKPKDTLMISRTPEVTCVVVDVSHEDPEVQFNWYVDGVEVHNAKTKPREEQFNSTFRVVSVLTVVHQDWLNGKEYKCKVSNKGLPAPIEKTISKTKGQPREPQVYTLPPSREEMTKNQVSLTCLVKGFYPSDIAVEWESNGQPENNYKTTPPMLDSDGSFFLYSKLTVDKSRWQQGNVFSCSVMHEALHNHYTQKSLSLSPGK
light: not shown
notes: Recombinant 1.12.1 with the single light-chain mutation D19A
B5: 4.38.1 (antibody, human IgG2, V domains shown)
VH: QVQLQESGPGLVKPSQTLSLTCTVSGGSISSGDYYWSWIRQHPGKGLEWIGYIYYSGSTYYNPSLKSRVTISIDTSKNQFSLKLSSVTAADTAVYYCARERDYGGGFDYWGQGTLVTVSS
VL: not shown
notes: as for B1
B6: 1.183.1 (antibody, human IgG2, V domains shown)
VH: QVQLQESGPGLVKPSETLSLTCTVSGGSISSYYWSWIRQPPGKGLEWIGYIYYSGSTNYNPSLKSRVTISVDTSKNQFSLKLSSVTAADTAVYYCAREDDSSGCPYFDYWGQGTLVTASS
VL: EIVMTQSPATLSVSPGERATLSCRASQSVSSNLAWYQQKPGQAPRVLIYGASTRATGIPVRFSGSGSGTEFTLTISSLQSEDFAVYYCQQYNNWPFTFGPGTKVDIK
B7: 1.162.1 (antibody, human IgG2, V domains shown)
VH: QVQLQESGPGLVKPSQTLSLICTVSGGSISSGEYYWSWIRQHPGKGLEWIGYIYYSGSTYYNPSLKSRLTISVDTSKNQFSLKLSSVTAADTAVYYCAREGIGAFDIWGQGTMVTVSS
VL: EIVLTQSPGTLSLSPGERATLSCRASQSVSSSYLAWYQQKPGQAPRLLIYGASSRATGIPDRFSGSGSGTDFTLTIIRLDPEDFAVYYCQRYGSSPITFGQGTRLEIK
notes: as for B1
B8: 4.58.1 (antibody, human IgG2, V domains shown)
VH: QVQLQESGPGLVKPSQTLSLTCTVSGGSISSGDYYWNWIRQHPGKGLEWIGYIYYSGSTYYNPSLKSRVTISVATSKNQFSLKLSSVTAADTAVYYCAREATEGFDYWGQGTLVTVSS
VL: EIVLTQSPGTLSLSPGERATLSCRASQSVSTTYLAWYQQKPGQAPRLLIYGASSRATGIPDRFSGSGSGTDFTLTISRLEPEDFALYYCQHYGTSSITFGQGTRLEIK
notes: as for B1
B9: 1.13.1 (antibody, human IgG2, V domains shown)
VH: QVHLQESGPGLVKPSETLSLTCTVSGGSVSSGDYYWNWIRQPPGKGLEWIGYIYYSGSTNYNPSLKSRITISIDTSKNQFSLKLNSVTAADTALYYCARESVAAFDYWGQGTLVTVSS
VL: EIVLTQSPGTLSLSPGERATLSCRASQSISSRYLAWYQQEPGQAPRLLIYGASSRATGIPDRFSGSGSGTDFTLTISRLEPEDFAVYYCQHYGSSPITFGQGTRLEIK
B10: 4.62.1 (antibody, V domains shown)
VH: QVQLQESGPGLVKPSQTLSLTCTVSGGSISSGDYYWNWIRQHPGKGLEWIGYIYYSGSTYYNPSLKSRVTISVDTSKNQFSLKLSSVTAADTAVYYCARESTDGMDVWGQGTTVTVSS
VL: not shown
notes: as for B1
B11: 4.72.1 (antibody, human IgG2, V domains shown)
VH: QVQLQESGPGLVKPSQTLSLTCTVSGGSISSGEYYWSWIRQHPGKGLEWIGYIFYSGSTYYNPSLKSRVTISLDTSKNQFSLKLSSVTAADTAVYYCARESTDGMDVWGQGTTVTVSS
VL: EIVLTQSPGTLSLSPGERATLSCRASQSVSSSYLAWYQRKPGQAPRLLIYGVSSRATGIPDRFSGSGSGTDFTLTISRLEPEDFAVYYCQQYGSSMITFGQGTRLEIK
notes: as for B1
B12: 4.24.1 (antibody, human IgG2, V domains shown)
VH: QVQLQESGPGLVKPSQTLSLTCTVSGGSISSNDYYWNWIRQHPGKGLEWIGYIYYSGSTYYNPSLKSRVTISVDTSKNQFSLKLSSVTAADTAVYYCARESTDGMDVWGQGTTVTVSS
VL: ENVLTQSPGTLSLSPGERATLSCRASQSVSSNYLAWYQQKPGQAPRLLIYGASSGATGIPDRFSGSGSGTDFTLTISRLEPEDFAVYYCQHYGSSPITFGQGTRLEIK
notes: as for B1

Tests used:
[1] = target: T3, recombinant human ALK-1/Fc fusion protein (human, UniProt P37023 22-118); test: SPR (BIAcore 3000) cross-competition on immobilized human ALK-1/Fc chimera
T3 construct: range 22-118; Disulfide-linked homodimer; also called hALK-1/Fc; recombinant human ALK-1/Fc chimera; not shown: Fc region of human IgG

[2] = target: T1, Cynomolgus monkey ALK-1 (full-length, …); test: FACS, 293 stable cells overexpressing full-length Cyno ALK-1, anti-human kappa R-PE secondary, geometric mean against mAb concentration
[3] = target: T4, human ALK-1 (full-length, cell surface) (human, UniProt P37023 22-503); test: FACS, 293 stable cells overexpressing full-length human ALK-1, anti-human kappa R-PE secondary, geometric mean against mAb concentration
T4 construct: whole, on cells; also called cell surface human ALK-1; receptor ALK-1

[4] = target: T1, Cynomolgus monkey ALK-1 (full-length, …); test: FACS on 293 cells overexpressing Cyno ALK-1
[5] = target: T1, Cynomolgus monkey ALK-1 (full-length, …); test: FACS on 293 cells overexpressing Cyno ALK-1
[6] = target: T4, human ALK-1 (full-length, cell surface); test: FACS on 293 cells overexpressing human ALK-1
[7] = target: T2, cynomologus ALK-1/Fc fusion protein; test: SPR (BIAcore 3000), cALK-1/Fc immobilized, antibody as analyte
[8] = target: T3, recombinant human ALK-1/Fc fusion …; test: SPR (BIAcore 3000), hALK-1/Fc immobilized, antibody as analyte
[9] = target: T4, human ALK-1 (full-length, cell surface); test: cell-based or functional assay
[10] = target: T5, monomeric ALK-ECD (human, UniProt P37023 22-118); test: SPR (BIAcore 3000), antibody immobilized, monomeric ALK-ECD as analyte (Example 8, different ECD preparation)
T5 construct: also called ALK-1 ECD His-Tag protein; Human ALK-1 ECD His-Tag Protein

Row | Binder | Kd [4] | Kd [6] | ID1 Taqman IC50 [9] | pSmad1 Western IC50 nM [9] | other results
1 | B1 | – | – | – | – | binding result [1]: binds
2 | B2 | – | – | – | – | EC50 (read off the curve) [2]: ~5 nM; EC50 (read off the curve) [3]: ~5 nM
3 | B3 | 2 nM | – | – | – | Kd [5]: 2 nM
4 | B4 | – | – | – | – | EC50 (read off the curve) [2]: ~3 nM; EC50 (read off the curve) [3]: ~5 nM; Kd [5]: 3.8 nM
5 | B5 | – | 9.3 nM | 87 nM | 52 nM | Avidity [7]: 150 pM; Avidity [8]: 100 pM
6 | B6 | – | – | 58 nM | 17 nM | –
7 | B7 | 3 nM | 5.6 nM | 75 nM | 15 nM | Avidity [7]: 62 pM; Avidity [8]: 18 pM; koff [8]: 1.1e-05 s⁻¹
8 | B8 | – | 14 nM | 14 nM | 15 nM | –
9 | B9 | – | – | 100 nM | 87 nM | –
10 | B10 | – | – | – | – | Avidity [7]: 19 pM; Avidity [8]: 9.6 pM
11 | B11 | 3.8 nM | 6.4 nM | 21 nM | 35 nM | Kd [10]: 0.8 nM; koff [10]: 2.5e-05 s⁻¹; kon [10]: 32000 M⁻¹ s⁻¹
12 | B12 | 3.1 nM | 7.6 nM | 100 nM | 82 nM | –
